Assay results taken from publication PMC9640584, “An active site loop toggles between conformations to control antibiotic hydrolysis and inhibition potency for CTX-M β-lactamase drug-resistance enzymes” (Nature Communications, 2022).

How the values were obtained:
Assay in all cases: enzyme inhibition assay (nitrocefin hydrolysis, Ki by fit to the Morrison equation); increasing concentrations of BLIP incubated with β-lactamase (0.05-0.6 nM) for 20 min, then nitrocefin added; initial velocity at 482 nm; 50 mM sodium phosphate pH 7.0, 100 μg/ml BSA
[1] = molecular target: CTX-M-15 G240D β-lactamase (Klebsiella pneumoniae)
[2] = molecular target: CTX-M-14 N106S β-lactamase
[3] = molecular target: CTX-M-15 N106S β-lactamase (Klebsiella pneumoniae)
[4] = molecular target: CTX-M-15 β-lactamase, wild type (Klebsiella pneumoniae)
[5] = molecular target: T1, CTX-M-14 β-lactamase, wild type (UniProt Q9L5C7 29-291); details: both partners purified
T1 construct: also called CTX-M-14 wild type; source: E. coli BL21(DE3), pET28a, purified (Co2+ Talon, TEV cleavage, Ni2+ Sepharose); not shown: His6, N-terminal, cleaved

Molecule: β-lactamase inhibitory protein (BLIP), wild type (from UniProt P35804) (natural protein)
- Ki [1]: 5 nM
- Ki [2]: 2.1 nM
- Ki [3]: 0.35 nM
- Ki [4]: 2.9 nM

B1: β-lactamase inhibitory protein (BLIP), wild type (natural protein)
chain: AGVMTGAKFTQIQFGMTRQQVLDIAGAENCETGGSFGDSIHCRGHAAGDYYAYATFGFTSAAADAKVDSKSQEKLLAPSAPTLTLAKFNQVTVGMTRAQVLATVGQGSCTTWSEYYPAYPSTAGVTLSLSCFDVDGYSSTGFYRGSAHLWFTDGVLQGKRQWDLV
notes: No removal of the His tag is described; source: E. coli RB791, plasmid pGR32, purified (Co2+ Talon column, gel filtration)
- Ki [5]: 330 nM
